Reference: publication PMC9520665, “Chaperonin containing TCP-1 (CCT/TRiC) is a novel therapeutic and diagnostic target for neuroblastoma” (Frontiers in Oncology, 2022)
Where no end group is shown, it is not given here.

What was measured:
CCT2(17-526) = biological target: T1, CCT2(17-526) (human, UniProt P78371-1 17-526); experiment: pull-down; 0.1-50 nmol biotin-CT20p (or biotin alone) mixed with 0.1 nmol recombinant CCT2 protein in 20 mM Tris-HCl, 3 h at room temperature, then overnight at 4°C with streptavidin-agarose beads; immunoblot for CCT2; conditions: both partners purified
T1 construct: CCT2 truncation that retains more of the equatorial domain; A TEV protease site replaced the thrombin site between GST and CCT2
T1 sequence (looked up): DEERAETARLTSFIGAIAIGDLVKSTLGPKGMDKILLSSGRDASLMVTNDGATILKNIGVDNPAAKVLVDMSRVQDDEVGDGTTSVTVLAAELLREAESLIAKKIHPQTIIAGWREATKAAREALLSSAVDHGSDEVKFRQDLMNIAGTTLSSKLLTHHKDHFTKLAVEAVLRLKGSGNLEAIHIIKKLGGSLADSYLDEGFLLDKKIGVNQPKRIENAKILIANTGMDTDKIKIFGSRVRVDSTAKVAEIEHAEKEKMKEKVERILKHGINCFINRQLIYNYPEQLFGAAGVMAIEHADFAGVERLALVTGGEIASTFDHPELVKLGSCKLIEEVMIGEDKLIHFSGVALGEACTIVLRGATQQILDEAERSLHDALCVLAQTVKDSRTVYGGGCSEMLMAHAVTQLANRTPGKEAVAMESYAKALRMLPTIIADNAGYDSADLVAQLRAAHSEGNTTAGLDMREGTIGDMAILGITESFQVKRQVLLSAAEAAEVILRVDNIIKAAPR

full-length HIS-CCT2 = biological target: T2, full-length HIS-CCT2 (human, UniProt P78371-1 1-535); experiment: as above; conditions: both partners purified
T2 construct: CCT2, second subunit of chaperonin containing TCP-1 (CCT/TRiC); The species is stated for CCT2 in general (human), not for the recombinant construct; also called recombinant full-length CCT2 protein; CCTβ; source: E. coli BL21 (DE3) and Rosetta, purified (Ni-NTA, SEC)
T2 sequence (looked up): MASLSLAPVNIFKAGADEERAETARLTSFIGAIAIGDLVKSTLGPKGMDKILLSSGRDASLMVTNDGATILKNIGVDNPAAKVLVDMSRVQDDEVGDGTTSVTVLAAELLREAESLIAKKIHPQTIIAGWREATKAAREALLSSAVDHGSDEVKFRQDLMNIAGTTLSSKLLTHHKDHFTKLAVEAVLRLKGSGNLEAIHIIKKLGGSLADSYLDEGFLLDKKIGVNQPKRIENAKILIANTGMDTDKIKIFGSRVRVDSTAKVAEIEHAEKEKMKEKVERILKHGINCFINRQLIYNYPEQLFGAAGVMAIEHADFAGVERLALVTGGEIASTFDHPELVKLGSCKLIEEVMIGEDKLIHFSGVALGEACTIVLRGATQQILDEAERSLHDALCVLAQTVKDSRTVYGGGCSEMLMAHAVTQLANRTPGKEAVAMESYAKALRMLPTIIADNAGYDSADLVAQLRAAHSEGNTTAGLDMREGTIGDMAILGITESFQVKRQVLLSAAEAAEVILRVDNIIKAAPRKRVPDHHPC

binding result (CCT2(17-526)): binds
binding result (full-length HIS-CCT2): binds
B1: biotinylated CT20p (peptide)
peptide: VTIFVAGVLTASLTIWKKMG
modifications: also: biotin, position not given here
notes: 20 amino acid amphipathic peptide derived from the C-terminus of the apoptotic protein Bax; also called biotin-CT20p; source: synthetic peptide, commercially synthesized (BioPeptides Inc)
